Starred links: 1 amine or outer side, 2 acyl side, 3 side chain; linkers in the order of their positions; H or OH if unused. Non-standard residues stand in square brackets, D forms with d. Groups on a side chain read outwards from the residue. No end group written: not given here. *: point of attachment. C20 diacid = O=C(O)CCCCCCCCCCCCCCCCCCC(=O)*; γGlu = O=C(O)[C@H](CCC(=O)[*:2])N[*:1]; αMeL = CC(C)C[C@](C)(N)C(=O)O; AEEA = NCCOCCOCC(=O)O; Aib = CC(C)(N)C(=O)O
T1: human glucose-dependent insulinotropic peptide receptor (human, UniProt P48546 22-466)
T1 sequence (looked up): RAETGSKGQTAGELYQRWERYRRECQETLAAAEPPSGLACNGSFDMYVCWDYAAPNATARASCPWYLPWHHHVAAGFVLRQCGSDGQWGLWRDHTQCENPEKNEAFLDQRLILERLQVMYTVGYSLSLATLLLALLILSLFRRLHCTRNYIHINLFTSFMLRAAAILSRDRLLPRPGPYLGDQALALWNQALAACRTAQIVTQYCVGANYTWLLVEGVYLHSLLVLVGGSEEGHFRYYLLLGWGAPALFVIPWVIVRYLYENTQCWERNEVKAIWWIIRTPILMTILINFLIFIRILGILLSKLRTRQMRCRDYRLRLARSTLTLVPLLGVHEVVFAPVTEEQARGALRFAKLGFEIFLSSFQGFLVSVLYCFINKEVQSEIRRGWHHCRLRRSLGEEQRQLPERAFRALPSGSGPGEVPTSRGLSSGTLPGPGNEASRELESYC


How the values were obtained:
Experiment in all cases: cell-based or functional assay
human GLP-1 receptor = human GLP-1 receptor (human, UniProt P43220 24-463)
human glucagon receptor = human glucagon receptor (human, UniProt P47871 26-477)
human glucagon receptor, sequence (P47871 26-477): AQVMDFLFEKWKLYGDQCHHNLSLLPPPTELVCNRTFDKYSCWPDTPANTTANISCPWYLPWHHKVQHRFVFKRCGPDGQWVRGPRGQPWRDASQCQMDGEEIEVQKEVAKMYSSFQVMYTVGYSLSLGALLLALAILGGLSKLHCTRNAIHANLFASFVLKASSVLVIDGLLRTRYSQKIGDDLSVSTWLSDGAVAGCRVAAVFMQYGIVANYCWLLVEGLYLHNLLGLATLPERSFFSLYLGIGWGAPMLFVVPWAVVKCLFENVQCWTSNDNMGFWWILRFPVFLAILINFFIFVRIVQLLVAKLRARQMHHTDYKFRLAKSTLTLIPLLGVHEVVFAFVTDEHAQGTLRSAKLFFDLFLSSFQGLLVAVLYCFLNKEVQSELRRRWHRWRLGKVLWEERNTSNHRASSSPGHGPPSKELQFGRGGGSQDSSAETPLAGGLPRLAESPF

[1] = biological target: T1, human glucose-dependent insulinotropic …

Binder | hGLP1R cAMP Rel EC50 (human GLP-1 receptor) [nM] | hGcgR cAMP Rel EC50 (human glucagon receptor) [nM] | hGIPR cAMP Rel EC50 [1] [nM]
Y[Aib]EGTFISDYSI[αMeL]LDKK([AEEA-AEEA-γGlu-C20 diacid])HQ[Aib]DFVEYLLETGPSSGAPPPS-NH2 (N-terminus assumed; SMILES CC[C@H](C)[C@H](NC(=O)[C@H](Cc1ccccc1)NC(=O)[C@@H](NC(=O)CNC(=O)[C@H](CCC(=O)O)NC(=O)C(C)(C)NC(=O)[C@@H](N)Cc1ccc(O)cc1)[C@@H](C)O)C(=O)N[C@@H](CO)C(=O)N[C@@H](CC(=O)O)C(=O)N[C@@H](Cc1ccc(O)cc1)C(=O)N[C@@H](CO)C(=O)N[C@H](C(=O)N[C@@](C)(CC(C)C)C(=O)N[C@@H](CC(C)C)C(=O)N[C@@H](CC(=O)O)C(=O)N[C@@H](CCCCN)C(=O)N[C@@H](CCCCNC(=O)COCCOCCNC(=O)COCCOCCNC(=O)CC[C@H](NC(=O)CCCCCCCCCCCCCCCCCCC(=O)O)C(=O)O)C(=O)N[C@@H](Cc1c[nH]cn1)C(=O)N[C@@H](CCC(N)=O)C(=O)NC(C)(C)C(=O)N[C@@H](CC(=O)O)C(=O)N[C@@H](Cc1ccccc1)C(=O)N[C@H](C(=O)N[C@@H](CCC(=O)O)C(=O)N[C@@H](Cc1ccc(O)cc1)C(=O)N[C@@H](CC(C)C)C(=O)N[C@@H](CC(C)C)C(=O)N[C@@H](CCC(=O)O)C(=O)N[C@H](C(=O)NCC(=O)N1CCC[C@H]1C(=O)N[C@@H](CO)C(=O)N[C@@H](CO)C(=O)NCC(=O)N[C@@H](C)C(=O)N1CCC[C@H]1C(=O)N1CCC[C@H]1C(=O)N1CCC[C@H]1C(=O)N[C@@H](CO)C(N)=O)[C@@H](C)O)C(C)C)[C@@H](C)CC) [Example 66] | > 5000 | > 5000 | 0.0786
Y[Aib]EGTFISDYSI[αMeL]LDKK([AEEA-AEEA-γGlu-C20 diacid])HQ[Aib]DFVEYLLEQGPSSGAPPPS-NH2 (N-terminus assumed; SMILES CC[C@H](C)[C@H](NC(=O)[C@H](Cc1ccccc1)NC(=O)[C@@H](NC(=O)CNC(=O)[C@H](CCC(=O)O)NC(=O)C(C)(C)NC(=O)[C@@H](N)Cc1ccc(O)cc1)[C@@H](C)O)C(=O)N[C@@H](CO)C(=O)N[C@@H](CC(=O)O)C(=O)N[C@@H](Cc1ccc(O)cc1)C(=O)N[C@@H](CO)C(=O)N[C@H](C(=O)N[C@@](C)(CC(C)C)C(=O)N[C@@H](CC(C)C)C(=O)N[C@@H](CC(=O)O)C(=O)N[C@@H](CCCCN)C(=O)N[C@@H](CCCCNC(=O)COCCOCCNC(=O)COCCOCCNC(=O)CC[C@H](NC(=O)CCCCCCCCCCCCCCCCCCC(=O)O)C(=O)O)C(=O)N[C@@H](Cc1c[nH]cn1)C(=O)N[C@@H](CCC(N)=O)C(=O)NC(C)(C)C(=O)N[C@@H](CC(=O)O)C(=O)N[C@@H](Cc1ccccc1)C(=O)N[C@H](C(=O)N[C@@H](CCC(=O)O)C(=O)N[C@@H](Cc1ccc(O)cc1)C(=O)N[C@@H](CC(C)C)C(=O)N[C@@H](CC(C)C)C(=O)N[C@@H](CCC(=O)O)C(=O)N[C@@H](CCC(N)=O)C(=O)NCC(=O)N1CCC[C@H]1C(=O)N[C@@H](CO)C(=O)N[C@@H](CO)C(=O)NCC(=O)N[C@@H](C)C(=O)N1CCC[C@H]1C(=O)N1CCC[C@H]1C(=O)N1CCC[C@H]1C(=O)N[C@@H](CO)C(N)=O)C(C)C)[C@@H](C)CC) [Example 67] | > 5000 | > 5000 | 0.0627
Y[Aib]EGTFISDYSI[αMeL]LDKK([AEEA-AEEA-γGlu-C20 diacid])HQ[Aib]EFVEYLLETGPSSGAPPPS-NH2 (N-terminus assumed; SMILES CC[C@H](C)[C@H](NC(=O)[C@H](Cc1ccccc1)NC(=O)[C@@H](NC(=O)CNC(=O)[C@H](CCC(=O)O)NC(=O)C(C)(C)NC(=O)[C@@H](N)Cc1ccc(O)cc1)[C@@H](C)O)C(=O)N[C@@H](CO)C(=O)N[C@@H](CC(=O)O)C(=O)N[C@@H](Cc1ccc(O)cc1)C(=O)N[C@@H](CO)C(=O)N[C@H](C(=O)N[C@@](C)(CC(C)C)C(=O)N[C@@H](CC(C)C)C(=O)N[C@@H](CC(=O)O)C(=O)N[C@@H](CCCCN)C(=O)N[C@@H](CCCCNC(=O)COCCOCCNC(=O)COCCOCCNC(=O)CC[C@H](NC(=O)CCCCCCCCCCCCCCCCCCC(=O)O)C(=O)O)C(=O)N[C@@H](Cc1c[nH]cn1)C(=O)N[C@@H](CCC(N)=O)C(=O)NC(C)(C)C(=O)N[C@@H](CCC(=O)O)C(=O)N[C@@H](Cc1ccccc1)C(=O)N[C@H](C(=O)N[C@@H](CCC(=O)O)C(=O)N[C@@H](Cc1ccc(O)cc1)C(=O)N[C@@H](CC(C)C)C(=O)N[C@@H](CC(C)C)C(=O)N[C@@H](CCC(=O)O)C(=O)N[C@H](C(=O)NCC(=O)N1CCC[C@H]1C(=O)N[C@@H](CO)C(=O)N[C@@H](CO)C(=O)NCC(=O)N[C@@H](C)C(=O)N1CCC[C@H]1C(=O)N1CCC[C@H]1C(=O)N1CCC[C@H]1C(=O)N[C@@H](CO)C(N)=O)[C@@H](C)O)C(C)C)[C@@H](C)CC) [Example 64] | > 5000 | 3070 | 0.0448
Y[Aib]EGTFISDYSI[αMeL]LDKK([AEEA-AEEA-γGlu-C20 diacid])HQ[Aib]EFVEYLLEAGPSSGAPPPS-NH2 (N-terminus assumed; SMILES CC[C@H](C)[C@H](NC(=O)[C@H](Cc1ccccc1)NC(=O)[C@@H](NC(=O)CNC(=O)[C@H](CCC(=O)O)NC(=O)C(C)(C)NC(=O)[C@@H](N)Cc1ccc(O)cc1)[C@@H](C)O)C(=O)N[C@@H](CO)C(=O)N[C@@H](CC(=O)O)C(=O)N[C@@H](Cc1ccc(O)cc1)C(=O)N[C@@H](CO)C(=O)N[C@H](C(=O)N[C@@](C)(CC(C)C)C(=O)N[C@@H](CC(C)C)C(=O)N[C@@H](CC(=O)O)C(=O)N[C@@H](CCCCN)C(=O)N[C@@H](CCCCNC(=O)COCCOCCNC(=O)COCCOCCNC(=O)CC[C@H](NC(=O)CCCCCCCCCCCCCCCCCCC(=O)O)C(=O)O)C(=O)N[C@@H](Cc1c[nH]cn1)C(=O)N[C@@H](CCC(N)=O)C(=O)NC(C)(C)C(=O)N[C@@H](CCC(=O)O)C(=O)N[C@@H](Cc1ccccc1)C(=O)N[C@H](C(=O)N[C@@H](CCC(=O)O)C(=O)N[C@@H](Cc1ccc(O)cc1)C(=O)N[C@@H](CC(C)C)C(=O)N[C@@H](CC(C)C)C(=O)N[C@@H](CCC(=O)O)C(=O)N[C@@H](C)C(=O)NCC(=O)N1CCC[C@H]1C(=O)N[C@@H](CO)C(=O)N[C@@H](CO)C(=O)NCC(=O)N[C@@H](C)C(=O)N1CCC[C@H]1C(=O)N1CCC[C@H]1C(=O)N1CCC[C@H]1C(=O)N[C@@H](CO)C(N)=O)C(C)C)[C@@H](C)CC) [Example 65] | > 5000 | 850 | 0.0346
